# Laboratory results taken from patent US20260209332A1 (SORRISO PHARMACEUTICALS, published 2026).
# T1: interleukin-23 (IL-23) (UniProt Q9NPF7 20-189; P29460 23-328)
# T1 sequence (looked up) 1: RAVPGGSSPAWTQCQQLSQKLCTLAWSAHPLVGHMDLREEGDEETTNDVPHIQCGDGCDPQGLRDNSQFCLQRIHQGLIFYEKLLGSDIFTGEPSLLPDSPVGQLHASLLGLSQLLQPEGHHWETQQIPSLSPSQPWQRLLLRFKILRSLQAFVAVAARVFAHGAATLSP
# T1 sequence (looked up) 2: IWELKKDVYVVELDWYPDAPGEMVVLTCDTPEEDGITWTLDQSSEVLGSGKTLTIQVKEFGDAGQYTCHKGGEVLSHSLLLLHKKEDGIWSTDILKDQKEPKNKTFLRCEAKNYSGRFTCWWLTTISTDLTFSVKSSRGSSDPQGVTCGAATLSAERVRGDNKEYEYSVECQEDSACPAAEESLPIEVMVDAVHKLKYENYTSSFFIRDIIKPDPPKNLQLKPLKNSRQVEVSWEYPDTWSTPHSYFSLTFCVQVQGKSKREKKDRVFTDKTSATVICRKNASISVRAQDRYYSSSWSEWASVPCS
# B1: liberated anti-IL-23 monomer arm of TNF-alpha/IL-23 dual inhibitor (VHH)
# VHH: EVQLVESGGGQVQPGGSLSLSCESSVSIWSFKVMGWFRQVPGKQRELVATITTGGSPDYSDSVKGRFTISRDYDKRTLYLQMNSLKPEDTAVYYCAGRLWAHITSSGHDVWGQGTQVTVSS
# notes: Cleavage product; carries the remnant of the linker at its N-terminus; also called liberated-IL-23
# B2: IL-23 inhibitor (anti-IL-23 single domain antibody, parent monomer) (VHH)
# VHH: B1 VHH
# notes: Produced in yeast; also called IL-23: D1E ID-L253T
# B3: TNF-alpha/IL-23 dual inhibitor (bispecific anti-TNF-alpha/anti-IL-23 domain antibody) (bispecific antibody)
# chain: DVQLVESGGGLVQPGGSLKLSCAASGFDFSSHWMYWVRQAPGKELEWLSEINTNGLITHYGDSVKGRFTVSRNNAANKMYLELTRLEPEDTALYYCARNQHGLNKGQGTQVTVSSGGGGSGGGGSKGGGGSGGGGSEVQLVESGGGQVQPGGSLSLSCESSVSIWSFKVMGWFRQVPGKQRELVATITTGGSPDYSDSVKGRFTISRDYDKRTLYLQMNSLKPEDTAVYYCAGRLWAHITSSGHDVWGQGTQVTVSS
# notes: Produced and purified from yeast; also called FA1K
# B4: TNF-alpha inhibitor (anti-TNF-alpha single domain antibody, parent monomer) (VHH)
# VHH: DVQLVESGGGLVQPGGSLKLSCAASGFDFSSHWMYWVRQAPGKELEWLSEINTNGLITHYGDSVKGRFTVSRNNAANKMYLELTRLEPEDTALYYCARNQHGLNKGQGTQVTVSS
# notes: Produced and purified from yeast; also called ID-38F
# B5: liberated anti-TNF-alpha monomer arm of TNF-alpha/IL-23 dual inhibitor (VHH)
# VHH: B4 VHH
# notes: Cleavage product; carries the remnant of the linker at its C-terminus; also called liberated-TNF
# Columns and labels:
# interleukin-23 (IL-23) [1] = target: T1, interleukin-23 (IL-23); experiment: IL-23/IL-23R interference ELISA; blocked interaction: IL-23 with IL-23 receptor; arm liberated by trypsin
# interleukin-23 (IL-23) [2] = target: T1, interleukin-23 (IL-23); experiment: IL-23/IL-23R interference ELISA; blocked interaction: IL-23 with IL-23 receptor
# [3] = target: T2, tumor necrosis factor alpha (TNF-alpha) (UniProt P01375 77-233); experiment: competition ELISA on TNF-alpha; competitor: biotinylated adalimumab
# T2 construct: Called a homo-trimeric protein in the general description
# [4] = target: T2, tumor necrosis factor alpha (TNF-alpha); experiment: competition ELISA on TNF-alpha; competitor: biotinylated adalimumab; arm liberated by trypsin
# T2 sequence (P01375 77-233 limits assumed): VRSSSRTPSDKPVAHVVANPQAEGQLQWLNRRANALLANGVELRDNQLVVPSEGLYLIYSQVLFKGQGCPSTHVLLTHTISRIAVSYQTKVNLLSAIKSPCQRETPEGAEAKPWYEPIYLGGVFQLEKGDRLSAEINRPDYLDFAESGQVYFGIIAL
Binder,IC50 (read off the curve) (interleukin-23 (IL-23) [2]) [pM],IC50 (read off the curve) [3] [pM],also measured
B1,–,–,IC50 (read off the curve) (interleukin-23 (IL-23) [1]): ~100 pM
B2,~200,–,–
B3,~200,~200,–
B4,–,~300,–
B5,–,–,IC50 (read off the curve) [4]: ~200 pM
